Measurements as given in patent US5885797, “Polynucleotide sequences encoding proteins involved in myogenesis” (Fred Hutchinson Cancer Research Center, dated 1999).

How the values were obtained:
[1] = target: T1, VP16-I-mfc (mouse); assay: yeast hybrid assay, strain L40, β-galactosidase reporter
T1 chain: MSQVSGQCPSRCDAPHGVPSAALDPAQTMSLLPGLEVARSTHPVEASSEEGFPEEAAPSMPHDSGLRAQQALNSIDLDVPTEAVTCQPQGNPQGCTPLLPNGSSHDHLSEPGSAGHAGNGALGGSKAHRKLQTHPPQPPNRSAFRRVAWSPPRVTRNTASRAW

[2] = target: T2, VP16-I-mfb (mouse); assay: as above
T2 chain: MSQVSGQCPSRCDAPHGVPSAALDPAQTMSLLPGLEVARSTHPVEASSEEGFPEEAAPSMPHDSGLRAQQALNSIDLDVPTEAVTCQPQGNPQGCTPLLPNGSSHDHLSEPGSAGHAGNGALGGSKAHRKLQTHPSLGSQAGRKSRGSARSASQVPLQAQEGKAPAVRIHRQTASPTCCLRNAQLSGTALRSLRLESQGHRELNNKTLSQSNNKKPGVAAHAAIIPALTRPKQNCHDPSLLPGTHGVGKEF

[3] = target: T3, Myogenin (full length, mouse) (mouse, UniProt P12979); assay: cell-based or functional assay
[4] = target: MyoD (full length, mouse) (mouse, UniProt P10085); assay: cell-based or functional assay
[5] = target: T4, Myf5 (full length, mouse) (mouse, UniProt P24699); assay: cell-based or functional assay
[6] = target: T3, Myogenin (full length, mouse); assay: yeast one-hybrid, strain L40, β-galactosidase reporter
[7] = target: T4, Myf5 (full length, mouse); assay: column 'Interaction with Myf5' of Table 4 (yeast hybrid assay of Table 3)
[8] = target: T4, Myf5 (full length, mouse); assay: yeast one-hybrid, strain L40, β-galactosidase reporter
[9] = target: T4, Myf5 (full length, mouse); assay: yeast hybrid assay, strain L40, β-galactosidase reporter
[10] = target: T5, Lethal of Scute (AS-C T3) (Drosophila melanogaster (Fruit fly), UniProt P09774); assay: yeast one-hybrid, strain L40, β-galactosidase reporter
T5 sequence: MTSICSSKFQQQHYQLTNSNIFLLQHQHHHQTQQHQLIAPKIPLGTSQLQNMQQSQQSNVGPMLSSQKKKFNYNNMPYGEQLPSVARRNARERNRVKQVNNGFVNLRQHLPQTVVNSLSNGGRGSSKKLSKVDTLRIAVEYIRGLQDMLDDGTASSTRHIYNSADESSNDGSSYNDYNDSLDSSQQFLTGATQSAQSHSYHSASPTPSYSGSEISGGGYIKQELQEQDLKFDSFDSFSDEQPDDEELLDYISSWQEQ

[11] = target: T5, Lethal of Scute (AS-C T3); assay: as above; remark: listed apart in the source

B1: LexA-I-mfa (87-202) (other)
chain: QPQGNPQGCTPLLPNGSSHDHLSEPGSAGHAGNGALGGSKAHRKLQTHPSLGSQAGRKSRGSARSASQVPLQAQEDCCVHCILSCLFCEFLTLCNILLDCATCGSCSSEDSCLCCC
B1 showed a β-galactosidase activity [1] of less than 0.1 arbitrary units and a β-galactosidase activity [2] of 0.2 arbitrary units.

B2: I-mfa (other)
chain: MSQVSGQCPSRCDAPHGVPSAALDPAQTMSLLPGLEVARSTHPVEASSEEGFPEEAAPSMPHDSGLRAQQALNSIDLDVPTEAVTCQPQGNPQGCTPLLPNGSSHDHLSEPGSAGHAGNGALGGSKAHRKLQTHPSLGSQAGRKSRGSARSASQVPLQAQEDCCVHCILSCLFCEFLTLCNILLDCATCGSCSSEDSCLCCCCCGSGECADCDLPCDLDCGIVDACCESADCLEICMECCGLCFSS
With B2 the “Relative CAT Activity (%), MCK-CAT (NIH3T3 cells)” value (from here on “Relative CAT Activity (%), MCK-CAT”) [3] was 2%, the “Relative CAT Activity (%), 4RCAT (10T/2 cells)” value (“Relative CAT Activity (%), 4RCAT” for short) [4] was 56% and the “Relative CAT Activity (%), MCK-CAT” value [4] was 27%. The “Relative CAT Activity (%), 4RCAT” value [5] was 13% and the “Relative CAT Activity (%), MCK-CAT” value [5] was 9%.

B3: LexA-I-mfa (other)
chain: MKALTARQQEVFDLIRDHISQTGMPPTRAEIAQRLGFRSPNAAEEHLKALARKGVIEIVSGASRGIRLLQEEEEGLPLVGRVAAGEPLLAQQHIEGHYQVDPSLFKPNADFLLRVSGMSMKDIGIMDGDLLAVHKTQDVRNGQVVVARIDDEVTVKRLKKQGNKVELLPENSEFKPIVVDLRQQSFTIEGLAVGVIRNGDWLMSQVSGQCPSRCDAPHGVPSAALDPAQTMSLLPGLEVARSTHPVEASSEEGFPEEAAPSMPHDSGLRAQQALNSIDLDVPTEAVTCQPQGNPQGCTPLLPNGSSHDHLSEPGSAGHAGNGALGGSKAHRKLQTHPSLGSQAGRKSRGSARSASQVPLQAQEDCCVHCILSCLFCEFLTLCNILLDCATCGSCSSEDSCLCCCCCGSGECADCDLPCDLDCGIVDACCESADCLEICMECCGLCFSS
With B3 the β-galactosidase activity [1] was 0.5 arbitrary units and the β-galactosidase activity [2] was 0.7 arbitrary units.

B4: LexA-I-mfa (1-202) (other)
chain: MSQVSGQCPSRCDAPHGVPSAALDPAQTMSLLPGLEVARSTHPVEASSEEGFPEEAAPSMPHDSGLRAQQALNSIDLDVPTEAVTCQPQGNPQGCTPLLPNGSSHDHLSEPGSAGHAGNGALGGSKAHRKLQTHPSLGSQAGRKSRGSARSASQVPLQAQEDCCVHCILSCLFCEFLTLCNILLDCATCGSCSSEDSCLCCC
B4 showed a β-galactosidase activity [1] of less than 0.1 arbitrary units and a β-galactosidase activity [2] of less than 0.1 arbitrary units.

B5: LexA-I-mfa (87-246) (other)
chain: QPQGNPQGCTPLLPNGSSHDHLSEPGSAGHAGNGALGGSKAHRKLQTHPSLGSQAGRKSRGSARSASQVPLQAQEDCCVHCILSCLFCEFLTLCNILLDCATCGSCSSEDSCLCCCCCGSGECADCDLPCDLDCGIVDACCESADCLEICMECCGLCFSS
B5 was tested, and the β-galactosidase activity [2] was 0.6 arbitrary units.

B6: LexA (other)
chain: MKALTARQQEVFDLIRDHISQTGMPPTRAEIAQRLGFRSPNAAEEHLKALARKGVIEIVSGASRGIRLLQEEEEGLPLVGRVAAGEPLLAQQHIEGHYQVDPSLFKPNADFLLRVSGMSMKDIGIMDGDLLAVHKTQDVRNGQVVVARIDDEVTVKRLKKQGNKVELLPENSEFKPIVVDLRQQSFTIEGLAVGVIRNGDWL
B6 showed a β-galactosidase activity [6] of 0.6 arbitrary units.

B7: LexA-I-mfa (29-246) (other)
chain: MSLLPGLEVARSTHPVEASSEEGFPEEAAPSMPHDSGLRAQQALNSIDLDVPTEAVTCQPQGNPQGCTPLLPNGSSHDHLSEPGSAGHAGNGALGGSKAHRKLQTHPSLGSQAGRKSRGSARSASQVPLQAQEDCCVHCILSCLFCEFLTLCNILLDCATCGSCSSEDSCLCCCCCGSGECADCDLPCDLDCGIVDACCESADCLEICMECCGLCFSS
B7 was tested, and the β-galactosidase activity [1] was 0.8 arbitrary units and the β-galactosidase activity [2] was 0.7 arbitrary units.

B8: I-mfb (other)
chain: T2 chain
In the case of B8, the “Relative CAT Activity (%), MCK-CAT” value [3] is reported as 101%, the “Relative CAT Activity (%), 4RCAT” value [4] is reported as 95% and the “Relative CAT Activity (%), MCK-CAT” value [4] is reported as 87%. For the same binder, the “Relative CAT Activity (%), 4RCAT” value [5] was 105% and the “Relative CAT Activity (%), MCK-CAT” value [5] was 132%.

B9: I-mfc (other)
chain: T1 chain
With B9 the “Relative CAT Activity (%), MCK-CAT” value [3] was 111%, the “Relative CAT Activity (%), 4RCAT” value [4] was 100% and the “Relative CAT Activity (%), MCK-CAT” value [4] was 100%. For the same binder, the “Relative CAT Activity (%), 4RCAT” value [5] was 101% and the “Relative CAT Activity (%), MCK-CAT” value [5] was 106%.

B10: LexA-I-mfc (other)
chain: MKALTARQQEVFDLIRDHISQTGMPPTRAEIAQRLGFRSPNAAEEHLKALARKGVIEIVSGASRGIRLLQEEEEGLPLVGRVAAGEPLLAQQHIEGHYQVDPSLFKPNADFLLRVSGMSMKDIGIMDGDLLAVHKTQDVRNGQVVVARIDDEVTVKRLKKQGNKVELLPENSEFKPIVVDLRQQSFTIEGLAVGVIRNGDWLMSQVSGQCPSRCDAPHGVPSAALDPAQTMSLLPGLEVARSTHPVEASSEEGFPEEAAPSMPHDSGLRAQQALNSIDLDVPTEAVTCQPQGNPQGCTPLLPNGSSHDHLSEPGSAGHAGNGALGGSKAHRKLQTHPPQPPNRSAFRRVAWSPPRVTRNTASRAW
B10 was tested, and the binding result [7] was “no binding”, the β-galactosidase activity [6] was 0.3 arbitrary units and the β-galactosidase activity [8] was 0.4 arbitrary units. The β-galactosidase activity [9] was less than 0.1 arbitrary units and the β-galactosidase activity [2] was less than 0.1 arbitrary units.

B11: LexA-I-mfb (other)
chain: MKALTARQQEVFDLIRDHISQTGMPPTRAEIAQRLGFRSPNAAEEHLKALARKGVIEIVSGASRGIRLLQEEEEGLPLVGRVAAGEPLLAQQHIEGHYQVDPSLFKPNADFLLRVSGMSMKDIGIMDGDLLAVHKTQDVRNGQVVVARIDDEVTVKRLKKQGNKVELLPENSEFKPIVVDLRQQSFTIEGLAVGVIRNGDWLMSQVSGQCPSRCDAPHGVPSAALDPAQTMSLLPGLEVARSTHPVEASSEEGFPEEAAPSMPHDSGLRAQQALNSIDLDVPTEAVTCQPQGNPQGCTPLLPNGSSHDHLSEPGSAGHAGNGALGGSKAHRKLQTHPSLGSQAGRKSRGSARSASQVPLQAQEGKAPAVRIHRQTASPTCCLRNAQLSGTALRSLRLESQGHRELNNKTLSQSNNKKPGVAAHAAIIPALTRPKQNCHDPSLLPGTHGVGKEF
With B11 the binding result [10] was “no binding”, the β-galactosidase activity [6] was 0.4 arbitrary units and the β-galactosidase activity [11] was 0.9 arbitrary units. For the same binder, the β-galactosidase activity [1] was less than 0.1 arbitrary units.
